Here are results for 2 molecules from article PMC7831362 (mAbs, 2021).

In test [1] the target is natively expressed mouse PD-L1 on mouse tumor cells (Mus musculus (endogenous in Renca cells), UniProt Q9EP73). As to the kind of experiment: flow cytometry on cells.
The target of test [2] is recombinant mouse PD-L1–human Fc chimeric fusion protein (mouse, UniProt Q9EP73 19-239, conjugated with europium cryptate trisbipyridine–N-hydroxysuccinimide). As to the kind of experiment: AlphaScreen or HTRF. For orientation: In Alpha technology, singlet oxygen from a donor bead excites a nearby acceptor bead.
Chain of recombinant mouse PD-L1–human Fc chimeric fusion protein (Q9EP73 19-239, change not shown): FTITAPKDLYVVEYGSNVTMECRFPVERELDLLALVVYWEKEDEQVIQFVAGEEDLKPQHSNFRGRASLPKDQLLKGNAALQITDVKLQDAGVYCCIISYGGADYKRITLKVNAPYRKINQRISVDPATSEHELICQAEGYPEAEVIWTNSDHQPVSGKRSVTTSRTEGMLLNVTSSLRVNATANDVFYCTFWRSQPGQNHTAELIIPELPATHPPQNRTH

Chain of natively expressed mouse PD-L1 on mouse tumor cells (Q9EP73 19-290): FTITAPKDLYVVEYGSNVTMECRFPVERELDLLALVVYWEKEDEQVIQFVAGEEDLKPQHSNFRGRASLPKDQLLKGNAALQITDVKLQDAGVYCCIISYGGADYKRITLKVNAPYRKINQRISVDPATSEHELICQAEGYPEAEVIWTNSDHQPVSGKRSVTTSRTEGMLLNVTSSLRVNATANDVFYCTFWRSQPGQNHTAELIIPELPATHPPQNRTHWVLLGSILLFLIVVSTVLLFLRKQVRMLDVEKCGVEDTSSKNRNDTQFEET

B1: anti-mouse PD-L1 hybridoma clone 17 (antibody, V domains shown)
VH: EVQLVESGGGLVQPGASLKLSCVASGFTFSDYWMSWVRQNPGKTMEWIGDIKYDGSYTDYAPSLKNRFTISRDNAKSTLYLQMSNVRSEDTATYYCTRATGRRDGYYPTDYFDYWGQGVMVTVSS
VL: DIVLTQSPALAVSLGQRATISCWASQSVSISRYNLMHWYQQKPGQQPKLLIYRASNLAGIPPRFSGSGSGTDFTLTINPVQADDIATYYCQQSRESPNTFGAGTKLELK
B1: the binding result in test [1] is reported as “binds”.

B2: recombinant mouse B7-1/CD80 Fc chimera His-tag protein (Fc fusion, UniProt Q00609 38-246, looked up)
chain: VDEQLSKSVKDKVLLPCRYNSPHEDESEDRIYWQKHDKVVLSVIAGKLKVWPEYKNRTLYDNTTYSLIILGLVLSDRGTYSCVVQKKERGTYEVKHLALVKLSIKADFSTPNITESGNPSADTKRITCFASGGFPKPRFSWLENGRELPGINTTISQDPESELYTISSQLDFNTTRNHTIKCLIKYGDAHVSEDFTWEKPPEDPPDSKN
modifications: conjugated with DyLight-650
Consider B2, for which, in test [2], the binding result is recorded as “binds”.
